Assay results as given in US20200270704A1 (published 2020).
Read-outs that look alike come from different tables or passages of the source.

Experiments:
[1] = biological target: T1, NY-ESO-1 (human, UniProt P78358 1-180); assay: SPR
[2] = biological target: T1, NY-ESO-1; assay: SPR; remark: listed apart in the source

T1 sequence (P78358 whole entry): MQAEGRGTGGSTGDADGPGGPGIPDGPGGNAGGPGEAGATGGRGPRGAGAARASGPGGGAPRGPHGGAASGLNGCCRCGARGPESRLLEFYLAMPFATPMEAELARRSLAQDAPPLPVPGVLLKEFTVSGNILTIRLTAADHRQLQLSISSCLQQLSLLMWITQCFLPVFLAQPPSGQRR

Kd [1]: 0.037 µM
Kd [2]: 0.037 µM
B1: BC2-3G1 (antibody, V domains shown)
VH: QVQLQQSGPGLVKPSQTLSLTCAISGDSVSSNSAAWNWIRQSPSRGLEWLGRTYYRSKWYNDYAVSVKSRITINPDTSKNQFSLQLNSVTPEDTAVYYCARDLGIAAAGDFDYWGQGTLVTVSS
VL: EIVLTQSPATLSLSPGERATLSCRASQGVSSYLAWYQQKPGQAPRLLIYDASNRATGIPARFSGSGSGTDFTLTISSLEPEDFAVYYCHQGSNWPTFGGGTKVEI
